Changes are numbered by the printed parent chain. Like-named read-outs stand apart in the source and are kept apart here.
What was measured:
p300/CBP KIX = p300/CBP KIX (UniProt Q92793); details: cited from earlier work
[1] = molecular target: T1, GST-KIX (aa 588-683, from mouse CBP) (mouse, UniProt P45481 588-683); assay: native gel or EMSA
[2] = molecular target: T1, GST-KIX (aa 588-683, from mouse CBP); assay: native gel or EMSA; remark: listed apart in the source
[3] = molecular target: untagged KIX (aa 587-679, from mouse CBP) (mouse, UniProt P45481 587-679); assay: cross-linking
Sequence of untagged KIX (aa 587-679, from mouse CBP) (P45481 587-679): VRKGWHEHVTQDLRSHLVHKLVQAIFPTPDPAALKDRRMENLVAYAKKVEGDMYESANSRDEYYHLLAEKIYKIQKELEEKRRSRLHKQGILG

T1 sequence (P45481 588-683): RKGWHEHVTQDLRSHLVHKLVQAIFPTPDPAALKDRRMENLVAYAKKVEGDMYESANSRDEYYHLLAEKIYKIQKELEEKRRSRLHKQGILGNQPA
Sequence of p300/CBP KIX (Q92793 587-666): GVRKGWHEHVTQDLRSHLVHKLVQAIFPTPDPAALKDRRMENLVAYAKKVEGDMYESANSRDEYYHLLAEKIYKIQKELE

Question: For CREB (from UniProt P16220), which Kd (p300/CBP KIX) is on record?
Answer: Its Kd is 108 µM.

B1: Gal4-HBZ-AD wt (Gal4-DBD aa 1-147 fused to the N-terminus of HBZ-AD aa 1-77) (domain or fragment)
chain: MAASGLFRCLPVSCPEDLLVEELVDGLLSLEEELKDKEEEEAVLDGLLSLEEESRGRLRRGPPGEKAPPRGETHRDR
Question: Which Kd [1] does the source give for B1 here?
Answer: Its Kd is 0.003 ± 0.0005 µM.

B2: Gal4-HBZ-Mut-AD1 (domain or fragment)
chain: B1 chain with L27A, L28A
Question: With B2 as the molecule, how does the Kd [2] read?
Answer: The Kd was 0.8 µM.

B3: Gal4-HBZ-Mut-AD2 (domain or fragment)
chain: B1 chain with L47A, L48A
Question: Which Kd [2] does the source give for B3 here?
Answer: Its Kd is 0.18 µM.

B4: HBZ-AD wt (aa 1-77, without the Gal4-DBD fusion) (domain or fragment)
chain: B1 chain
Question: For B4, which “stoichiometry N” value [3] is on record?
Answer: Its value is 1.

From article PMC3139367 (Journal of molecular biology, 2011)
